Assay results taken from doi:10.64898/2025.12.10.693482, “Mechanism of NanR transcriptional activation of sialic acid metabolism in Streptococcus pneumoniae” (bioRxiv, 2025).
Values joined by “and” are separate entries in the source; they are usually repeats but may differ in a detail not shown here. Identical values can stand only once.

Columns and labels:
SpNanR (NanR) = target: T1, SpNanR (NanR) (Streptococcus pneumoniae, UniProt A0A4M6CQT5); assay: ITC (n = […]), DSF, crystal structures (8TX9, 8V4V), sedimentation velocity; assay type: binding
T1 construct: gene ybbH; recombinant, full-length SpNanR

SpNanR D160A (NanR) = target: T2, SpNanR D160A (NanR) (Streptococcus pneumoniae, UniProt A0A4M6CQT5, D160A); assay: DSF thermal shift (comparable to wild type) and tetramer stabilization by sedimentation velocity; assay type: binding
T2 construct: gene ybbH; recombinant SpNanR variant

[1] = target: the molecule itself; assay: SEC-SAXS; small-angle X-ray scattering with in-line size exclusion chromatography, SpNanR without N-acetylmannosamine-6-phosphate
[2] = target: the molecule itself; assay: AUC; sedimentation velocity, SpNanR 0.27–153.5 μM, with 2 mM N-acetylmannosamine-6-phosphate, 20 mM Tris-HCl pH 8.0, 300 mM NaCl, 20 °C; tetramer to dimers
[3] = target: the molecule itself; assay: AUC; sedimentation velocity, SpNanR 4.3–227.7 μM, no N-acetylmannosamine-6-phosphate, 20 mM Tris-HCl pH 8.0, 300 mM NaCl, 20 °C; weight-averaged s fitted to a dimer-tetramer self-association model (Sedphat); tetramer to dimers
[4] = target: the molecule itself; assay: AUC; sedimentation velocity of SpNanR variants and wild type at the same concentration, without N-acetylmannosamine-6-phosphate (Supplementary Figure 14C–E)
SpNanR T18A = SpNanR T18A (Streptococcus pneumoniae, UniProt A0A4M6CQT5 1-283, T18A); assay: MST; up to 5 uM protein; MST: 20 mM Tris-HCl pH 8.0, 300 mM NaCl, 0.05% Tween-20, 20 C, 20 nM FAM-DNA, overnight incubation; AUC: 50 nM FAM-DNA, 0.019-5 uM SpNanR, buffer not given in m; details: protein: recombinant; chain copies: 2; label: 5'-6-FAM on sense strand; blunt 18 bp
SpNanR R67A = SpNanR R67A (Streptococcus pneumoniae, UniProt A0A4M6CQT5 1-283, R67A); assay: as above; details: protein: recombinant; chain copies: 2; label: 5'-6-FAM on sense strand; blunt 18 bp
SpNanR R56A = SpNanR R56A (Streptococcus pneumoniae, UniProt A0A4M6CQT5 1-283, R56A); assay: as above; details: protein: recombinant; chain copies: 2; label: 5'-6-FAM on sense strand; blunt 18 bp

T1 sequence (A0A4M6CQT5 entry or part of it): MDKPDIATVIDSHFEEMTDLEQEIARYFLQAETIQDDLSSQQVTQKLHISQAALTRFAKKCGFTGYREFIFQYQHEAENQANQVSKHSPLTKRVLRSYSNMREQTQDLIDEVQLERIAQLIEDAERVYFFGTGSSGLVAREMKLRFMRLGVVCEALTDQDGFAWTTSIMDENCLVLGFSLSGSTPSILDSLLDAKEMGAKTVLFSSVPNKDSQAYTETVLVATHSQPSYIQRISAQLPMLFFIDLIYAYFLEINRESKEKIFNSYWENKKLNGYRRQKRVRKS
T2 sequence (A0A4M6CQT5 whole entry D160A): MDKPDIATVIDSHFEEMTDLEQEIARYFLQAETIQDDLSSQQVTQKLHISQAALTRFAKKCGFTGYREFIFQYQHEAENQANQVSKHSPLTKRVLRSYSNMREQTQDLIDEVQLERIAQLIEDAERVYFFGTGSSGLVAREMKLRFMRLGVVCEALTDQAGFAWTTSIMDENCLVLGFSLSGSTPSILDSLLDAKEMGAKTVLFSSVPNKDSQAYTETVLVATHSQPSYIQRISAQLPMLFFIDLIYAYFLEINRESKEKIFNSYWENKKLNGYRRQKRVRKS

Question: What does the source list for `CC(=O)N[C@@H]1C(O)O[C@H](COP(=O)(O)O)[C@@H](O)[C@@H]1O` (stereo partly shown) [manNAc-6-P, N-acetylmannosamine-6-phosphate]?
Answer: Kd (SpNanR (NanR)): 20.4 ± 6 µM; DSF thermal shift (comparable to wild type) and tetramer stabilization by sedime (SpNanR D160A (NanR)): it still binds N-acetylmannosamine-6-phosphate and that this sufficiently stabilizes the tetrameric form

B1: Streptococcus pneumoniae NanR (SpNanR), wild type (natural protein, UniProt A0ACD7PT65 1-283, looked up)
chain: MDKPDIATIIDSHFEEMTDLEQEIARYFLQAETITDDLSSQQVTQKLHISQAALTRFAKKCGFTGYREFIFQYQHQAENQANQVSKHSPLTKRVLRSYSNMREQTQDLIDEIQLERIAQLIEDAERIYFFGTGSSGLVAREMKLRFMRLGVVCEALTDQDGFAWTTSIMDENCLVLGFSLSGSTPSILDSLLDAKEMGAKTVLFTSVPNKNSQTYTETVLVATHSQPSYIQRISAQLPMLFFIDLIYAYFLEINRESKEKIFNSYWENKKLNGYRRQKRVRKS
notes: NanR, RpiR family transcriptional regulator of Streptococcus pneumoniae; recombinant full-length protein; intact mass 32,611 Da; Cloned into pET30ΔSE; Exists in a dimer-tetramer equilibrium; also called SpNanR^WT
Question: What does the source list for B1?
Answer: stoichiometry N [1]: 4 and 2; Kd [2]: < 0.2 µM; Kd [3]: 97 µM

B2: SpNanR^D160A (natural protein)
chain: MDKPDIATIIDSHFEEMTDLEQEIARYFLQAETITDDLSSQQVTQKLHISQAALTRFAKKCGFTGYREFIFQYQHQAENQANQVSKHSPLTKRVLRSYSNMREQTQDLIDEIQLERIAQLIEDAERIYFFGTGSSGLVAREMKLRFMRLGVVCEALTDQAGFAWTTSIMDENCLVLGFSLSGSTPSILDSLLDAKEMGAKTVLFTSVPNKNSQTYTETVLVATHSQPSYIQRISAQLPMLFFIDLIYAYFLEINRESKEKIFNSYWENKKLNGYRRQKRVRKS
notes: NanR of Streptococcus pneumoniae (WP_000360349.1) with the substitution D160A; Variant of m1; source: E. coli BL21(DE3), purified
Question: Which “stoichiometry N” value [4] does the source give for B2 here?
Answer: 2

B3: SpNanR^R148A (natural protein)
chain: MDKPDIATIIDSHFEEMTDLEQEIARYFLQAETITDDLSSQQVTQKLHISQAALTRFAKKCGFTGYREFIFQYQHQAENQANQVSKHSPLTKRVLRSYSNMREQTQDLIDEIQLERIAQLIEDAERIYFFGTGSSGLVAREMKLRFMALGVVCEALTDQDGFAWTTSIMDENCLVLGFSLSGSTPSILDSLLDAKEMGAKTVLFTSVPNKNSQTYTETVLVATHSQPSYIQRISAQLPMLFFIDLIYAYFLEINRESKEKIFNSYWENKKLNGYRRQKRVRKS
notes: NanR of Streptococcus pneumoniae (WP_000360349.1) with the substitution R148A; Variant of m1; source: E. coli BL21(DE3), purified
Question: How did the “stoichiometry N” value [4] turn out when B3 was run?
Answer: 2

B4: nanE recognition sequence, FAM-labeled (dsDNA)
DNA 1: TCTGAAAGTACTTTTAGA
DNA 2: TCTAAAAGTACTTTCAGA
Question: Does B4 bind (SpNanR T18A)?
Answer: no binding

Question: Does B4 bind (SpNanR R67A)?
Answer: no binding

Question: Does B4 bind (SpNanR R56A)?
Answer: no binding
